± gives the uncertainty stated by the source.
Experiment: self-splicing fitness, log relative to wild type (ln ratio); higher = more splicing; Tetrahymena group I intron in knt gene, E. coli kanamycin selection, DiMSum; sequences stand for … in CUCUCU…GGAGGGAAAAGUUAUCAGGCAUGCACCUGGUAGCUAGUCUUUAAACCAAUAGAUUGCAUCGGUUUAAAAGGCAAGACCGUCAAAUUGCGGGAAAGGGGUCAACAGCCGUUCAGUACCAAGUCUCAGGGGAAACUUUGAGAUGGCCUUGCAAAGGGUAUGGUAAUAAGCUGACGGACAUGGUCCUAACCACGCAGCCAAGUCCUAAGUCAACAGAUCUUCUGUUGAUAUGGAUGCAGUUCACAGACUAAAUGUCGGUCGGGGAAGAUGUAUUCUUCUCAUAAGAUAUAGUCGGACCUCUCCUUAAUGGGAGCUAGCGGAUGAAGUGAUGCAACACUGGAGCCGCUGGGAACUAAUUUGUAUGCGAAAGUAUAUUGAUUAGUUUUGGAGUACUCGUGGUCG
Procedure, shortened: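 A randomised library covering all eight P1ex-region intron nucleotides was built with the intron in the knt kanamycin-resistance gene on pET-22b(+) and held in E. coli BL21(DE3). Cells were grown overnight at 37°C or 30°C on LB agar, with or without 25 μg/mL kanamycin, plus 100 μg/mL carbenicillin, 50 μM IPTG and 0.2% rhamnose, and pooled colonies were amplicon-sequenced on an Illumina HiSeq 2500. DiMSum fitness is the error-weighted combination of wild-type-normalised replicate fold changes, kanamycin versus none.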

Row | Sequence | self-splicing fitness (ln) (37 °C) | self-splicing fitness (ln) (30 °C)
1 | GAGGAGCAAUAUUACGGUAC | -2.14 ± 0.26 | –
2 | GAGGAGCAAUAUUACGGUGA | -1.49 ± 0.28 | -3.55 ± 0.37
3 | GAGGAGCAAUAUUACGUAUA | -2.74 ± 0.4 | –
4 | GAGGAGCAAUAUUACGUAUU | 0.0104 ± 0.25 | -3.47 ± 0.32
5 | GAGGAGCAAUAUUACGUGGC | – | -3.34 ± 0.24
6 | GAGGAGCAAUAUUACGUUAA | -1.65 ± 0.21 | -2.94 ± 0.36
7 | GAGGAGCAAUAUUACGUUCC | -2.82 ± 0.48 | –
8 | GAGGAGCAAUAUUACGUUUU | -1.56 ± 0.15 | -2.16 ± 0.13
9 | GAGUAGCAAUAUUACGAAAA | – | -2.8 ± 0.38
10 | GAGUAGCAAUAUUACGAAGC | -1.8 ± 0.44 | -2.94 ± 0.32
11 | GAGUAGCAAUAUUACGAAUG | -1.89 ± 0.22 | -3.18 ± 0.26
12 | GAGUAGCAAUAUUACGACAA | -0.0944 ± 0.12 | -0.891 ± 0.12
13 | GAGUAGCAAUAUUACGACAC | -0.953 ± 0.27 | -0.768 ± 0.18
14 | GAGUAGCAAUAUUACGAUGA | -2.22 ± 0.23 | -1.87 ± 0.2
15 | GAGUAGCAAUAUUACGCAAG | -0.127 ± 0.1 | -3.43 ± 0.26
16 | GAGUAGCAAUAUUACGCAUA | -1.54 ± 0.24 | -2.47 ± 0.25
17 | GAGUAGCAAUAUUACGCGAG | -0.947 ± 0.1 | -3.35 ± 0.16
18 | GAGUAGCAAUAUUACGCGCC | -0.361 ± 0.29 | -1.42 ± 0.3
19 | GAGUAGCAAUAUUACGCGCG | -1 ± 0.2 | -0.178 ± 0.21
20 | GAGUAGCAAUAUUACGCGGG | -2.55 ± 0.16 | -3.59 ± 0.2
21 | GAGUAGCAAUAUUACGCUCA | -0.761 ± 0.15 | -0.591 ± 0.15
22 | GAGUAGCAAUAUUACGGCCU | 0.808 ± 0.19 | -0.381 ± 0.12
23 | GAGUAGCAAUAUUACGGGAG | -3.1 ± 0.24 | -2.18 ± 0.19
24 | GAGUAGCAAUAUUACGGGAU | -2.96 ± 0.35 | -3.73 ± 0.33
25 | GAGUAGCAAUAUUACGGGGA | -2.45 ± 0.2 | -2.51 ± 0.14

Row | Sequence | self-splicing fitness (ln) (37 °C) | self-splicing fitness (ln) (30 °C)
26 | GAGUAGCAAUAUUACGGUCA | 0.0478 ± 0.12 | -0.51 ± 0.12
27 | GAGUAGCAAUAUUACGUAAU | -2.38 ± 0.16 | -2.16 ± 0.13
28 | GAGUAGCAAUAUUACGUAGG | -1.81 ± 0.17 | -3.9 ± 0.24
29 | GAGUAGCAAUAUUACGUCGA | -0.114 ± 0.14 | -1.43 ± 0.15
30 | GAGUAGCAAUAUUACGUCUG | -0.363 ± 0.15 | -0.699 ± 0.12
31 | GAGUAGCAAUAUUACGUGCC | -0.846 ± 0.18 | -1.79 ± 0.23
32 | GAGUAGCAAUAUUACGUGGU | -0.852 ± 0.29 | -3.48 ± 0.25
33 | GAGUAGCAAUAUUACGUGUA | -1.35 ± 0.1 | -2.97 ± 0.11
34 | GAGUAGCAAUAUUACGUUUC | -2.54 ± 0.27 | -2.82 ± 0.18
35 | GAUAAGCAAUAUUACGAAAA | -2.47 ± 0.2 | -2.98 ± 0.17
36 | GAUAAGCAAUAUUACGAAUC | -2.16 ± 0.25 | -3.17 ± 0.25
37 | GAUAAGCAAUAUUACGACAU | 0.0172 ± 0.032 | -0.4 ± 0.012
38 | GAUAAGCAAUAUUACGACCC | -0.582 ± 0.37 | -0.0888 ± 0.28
39 | GAUAAGCAAUAUUACGACGU | 0.339 ± 0.091 | -0.187 ± 0.076
40 | GAUAAGCAAUAUUACGAGGU | -2.79 ± 0.13 | -3.42 ± 0.13
41 | GAUAAGCAAUAUUACGCAGC | -0.777 ± 0.29 | -3.45 ± 0.47
42 | GAUAAGCAAUAUUACGCCAC | -2.13 ± 0.36 | -3.11 ± 0.44
43 | GAUAAGCAAUAUUACGGAUA | -1.31 ± 0.15 | -1.73 ± 0.12
44 | GAUAAGCAAUAUUACGGCCG | -0.332 ± 0.15 | -1.35 ± 0.1
45 | GAUAAGCAAUAUUACGGCCU | -0.592 ± 0.11 | -0.624 ± 0.08
46 | GAUAAGCAAUAUUACGGUAC | -0.383 ± 0.17 | -1.92 ± 0.12
47 | GAUAAGCAAUAUUACGGUUC | -2.5 ± 0.31 | -3.24 ± 0.43
48 | GAUAAGCAAUAUUACGGUUG | -1.26 ± 0.11 | -2.65 ± 0.12
49 | GAUAAGCAAUAUUACGUCCU | -0.0126 ± 0.19 | -0.907 ± 0.14
50 | GAUAAGCAAUAUUACGUCUA | -0.275 ± 0.085 | -1.18 ± 0.075

Row | Sequence | self-splicing fitness (ln) (37 °C) | self-splicing fitness (ln) (30 °C)
51 | GAUAAGCAAUAUUACGUGCC | -0.548 ± 0.13 | -0.717 ± 0.1
52 | GAUAAGCAAUAUUACGUGGG | -2.27 ± 0.25 | -3.77 ± 0.23
53 | GAUAAGCAAUAUUACGUGGU | -2.35 ± 0.15 | -4.24 ± 0.19
54 | GAUCAGCAAUAUUACGAGGA | -1.85 ± 0.13 | -1.43 ± 0.13
55 | GAUCAGCAAUAUUACGAUCG | 0.0523 ± 0.13 | -1.17 ± 0.096
56 | GAUCAGCAAUAUUACGAUUG | -0.237 ± 0.11 | -0.607 ± 0.079
57 | GAUCAGCAAUAUUACGCAAG | -1.34 ± 0.14 | -1.99 ± 0.15
58 | GAUCAGCAAUAUUACGCCUG | 0.935 ± 0.19 | -0.866 ± 0.17
59 | GAUCAGCAAUAUUACGCCUU | 0.438 ± 0.14 | -0.124 ± 0.12
60 | GAUCAGCAAUAUUACGCGAC | -1.62 ± 0.15 | -1.63 ± 0.15
61 | GAUCAGCAAUAUUACGCGAU | -2.6 ± 0.2 | -3.92 ± 0.21
62 | GAUCAGCAAUAUUACGCGCA | -0.0411 ± 0.1 | 0.225 ± 0.092
63 | GAUCAGCAAUAUUACGCGGA | -0.828 ± 0.14 | -1.45 ± 0.18
64 | GAUCAGCAAUAUUACGCGGG | -1.33 ± 0.11 | -2.31 ± 0.1
65 | GAUCAGCAAUAUUACGCUAG | -0.723 ± 0.18 | -1.15 ± 0.15
66 | GAUCAGCAAUAUUACGGACC | -1.08 ± 0.36 | -0.933 ± 0.32
67 | GAUCAGCAAUAUUACGGCAA | -1.24 ± 0.087 | -0.689 ± 0.084
68 | GAUCAGCAAUAUUACGGCAC | 0.413 ± 0.17 | -0.826 ± 0.099
69 | GAUCAGCAAUAUUACGGCUC | 0.687 ± 0.12 | 0.00813 ± 0.1
70 | GAUCAGCAAUAUUACGUAUC | -2.62 ± 0.21 | -3.17 ± 0.21
71 | GAUCAGCAAUAUUACGUCCC | -0.381 ± 0.22 | -2.07 ± 0.41
72 | GAUCAGCAAUAUUACGUCCG | -1.66 ± 0.22 | -3.26 ± 0.26
73 | GAUCAGCAAUAUUACGUUGA | -1.54 ± 0.15 | -2.24 ± 0.17
74 | GAUGAGCAAUAUUACGAAGC | 0.175 ± 0.21 | -1.4 ± 0.41
75 | GAUGAGCAAUAUUACGACGU | -0.283 ± 0.11 | -1.09 ± 0.094

Row | Sequence | self-splicing fitness (ln) (37 °C) | self-splicing fitness (ln) (30 °C)
76 | GAUGAGCAAUAUUACGACUG | – | -3.11 ± 0.44
77 | GAUGAGCAAUAUUACGAGCC | -1.53 ± 0.41 | -0.987 ± 0.31
78 | GAUGAGCAAUAUUACGAUUC | – | -2.42 ± 0.46
79 | GAUGAGCAAUAUUACGAUUG | -2.67 ± 0.22 | -4.96 ± 0.45
80 | GAUGAGCAAUAUUACGCAUA | -1.98 ± 0.21 | -2.68 ± 0.21
81 | GAUGAGCAAUAUUACGCGGA | -2.15 ± 0.11 | -2.72 ± 0.12
82 | GAUGAGCAAUAUUACGCGGU | -2.77 ± 0.34 | -3.33 ± 0.28
83 | GAUGAGCAAUAUUACGCGUU | -3.27 ± 0.21 | -4.44 ± 0.28
84 | GAUGAGCAAUAUUACGGAAG | – | -2.31 ± 0.33
85 | GAUGAGCAAUAUUACGGAGU | -2.71 ± 0.38 | -3.16 ± 0.26
86 | GAUGAGCAAUAUUACGGCCG | – | 0.414 ± 0.41
87 | GAUGAGCAAUAUUACGGGGA | -2.04 ± 0.25 | –
88 | GAUGAGCAAUAUUACGGGUA | -1.02 ± 0.17 | -3.19 ± 0.27
89 | GAUGAGCAAUAUUACGGUAU | -1.28 ± 0.14 | -2.71 ± 0.18
90 | GAUGAGCAAUAUUACGGUGA | -1.76 ± 0.27 | -2.21 ± 0.28
91 | GAUGAGCAAUAUUACGGUUA | -2.47 ± 0.25 | -2.77 ± 0.28
92 | GAUGAGCAAUAUUACGUAAU | -1.55 ± 0.28 | -2.8 ± 0.23
93 | GAUGAGCAAUAUUACGUAGC | -1.74 ± 0.25 | -3.69 ± 0.34
94 | GAUGAGCAAUAUUACGUAUC | -2.64 ± 0.31 | -3.54 ± 0.37
95 | GAUGAGCAAUAUUACGUAUG | -1.59 ± 0.14 | –
96 | GAUGAGCAAUAUUACGUCCG | -2.09 ± 0.32 | -3.75 ± 0.43
97 | GAUGAGCAAUAUUACGUGUA | -1.87 ± 0.16 | -2.77 ± 0.16
98 | GAUGAGCAAUAUUACGUGUU | -2.47 ± 0.27 | -3.72 ± 0.31

— the supplement of paper PMC7877785
